Source: article PMC2665295
Read-outs that look alike come from different tables or passages of the source.

Experiments:
[1] = target: rat αCaMKII (Ca2+/calmodulin-dependent protein kinase II, α subunit) (rat) (UniProt P11275); assay: ITC
[2] = target: rat αCaMKII (Ca2+/calmodulin-dependent protein kinase II, α subunit) (rat) (UniProt P11275); assay: ITC; remark: listed apart in the source
[3] = target: rat αCaMKII (Ca2+/calmodulin-dependent protein kinase II, α subunit) (rat) (UniProt P11275); assay: ITC; remark: listed apart in the source
[4] = target: rat αCaMKII (Ca2+/calmodulin-dependent protein kinase II, α subunit) (rat) (UniProt P11275)
[5] = target: rat αCaMKII (Ca2+/calmodulin-dependent protein kinase II, α subunit) (rat) (UniProt P11275); assay: ITC; remark: listed apart in the source

Chain of rat αCaMKII (Ca2+/calmodulin-dependent protein kinase II, α subunit) (rat) (P11275 whole entry): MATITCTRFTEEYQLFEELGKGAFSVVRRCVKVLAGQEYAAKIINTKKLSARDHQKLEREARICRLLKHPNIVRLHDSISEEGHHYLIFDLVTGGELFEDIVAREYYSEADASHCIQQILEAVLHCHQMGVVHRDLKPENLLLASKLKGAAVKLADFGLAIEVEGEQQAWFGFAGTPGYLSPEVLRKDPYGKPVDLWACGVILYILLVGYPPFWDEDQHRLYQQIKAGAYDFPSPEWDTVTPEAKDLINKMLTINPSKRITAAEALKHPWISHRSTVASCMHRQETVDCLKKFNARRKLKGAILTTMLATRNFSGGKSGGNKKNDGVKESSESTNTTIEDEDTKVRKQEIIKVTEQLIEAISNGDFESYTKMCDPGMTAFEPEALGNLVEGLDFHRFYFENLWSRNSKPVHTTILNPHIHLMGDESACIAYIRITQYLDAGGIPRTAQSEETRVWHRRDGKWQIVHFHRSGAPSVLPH

Substance: wild-type calmodulin (from UniProt P0DP23 1-149) (natural protein; other documents disagree on this pair)
- dH [1]: -11.1 kcal/mol
- stoichiometry N [1]: 1.08
- Kd [2]: 1320 nM
- dH [2]: -12.8 kcal/mol
- stoichiometry N [2]: 0.83
- Kd [3]: 1900 nM
- dH [3]: 1.7 kcal/mol
- stoichiometry N [3]: 0.823

Substance: CaMCC, a chimeric molecule composed of two C-lobes of CaM
- activation of CaMKII (phosphorylation of syntide), K0.5 [4]: 1.4 µM
- Kd [5]: 360 nM
- dH [5]: -7.3 kcal/mol
- stoichiometry N [5]: 0.979
- Kd [2]: 370 nM
- dH [2]: -6.5 kcal/mol
- stoichiometry N [2]: 0.84

Substance: CaMNN, a chimeric molecule composed of two N-lobes of CaM
- Kd1 (binding mode 1) [5]: 18 nM
- Kd2 (binding mode 2) [5]: 360 nM
- N1 (binding mode 1) [5]: 0.36
- N2 (binding mode 2) [5]: 0.61
- dH1 (binding mode 1) [5]: -6.3 kcal/mol
- dH2 (binding mode 2) [5]: -14.7 kcal/mol
- Kd1 (binding mode 1) [2]: 0.064 µM
- Kd2 (binding mode 2) [2]: 0.34 µM
- N1 (binding mode 1) [2]: 0.26
- N2 (binding mode 2) [2]: 0.62
- dH1 (binding mode 1) [2]: 0.7 kcal/mol
- dH2 (binding mode 2) [2]: -18.1 kcal/mol
